Experimental data reported in the nanobody polyreactivity screen of Harvey et al. (2022).

Assay: yeast display, Sf9 membrane polyspecificity reagent, FACS + sequencing; frameworks hold sequencing errors
Summary of the method: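 After 36–48 hours of galactose induction, yeast (Saccharomyces cerevisiae BJ5465) displaying a synthetic nanobody library were stained at 4 °C for 1 hour with 10% biotinylated, detergent-solubilized Sf9 membrane reagent. Streptavidin microbeads enriched the stained cells before FACS sorting into low and high (top ~1%) gates on anti-HA and streptavidin fluorescence. Each clone's polyreactivity label reflects its gate of origin.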
In the case of “QVQLVESGGGLVQAGGSLRLSCAASGRTITFNTMGWYRQAPGKERELVAGIDRGGSTNYADSVKGRFTISRDNAKNTVYLQMNSLKPEDTAVYYCAKRWTGLGGYYYWGQGTQVTVSS”, the “polyreactivity (PSR sort gate)” value is reported as “high polyreactivity”.
For “QVQLVESGGGLVQAGGSLRLSCTASGRTLYNYTMGWYRQAPGKERELVATINFSGGSTYYADSVKGRFTISRDNAKNTVYLQMNSLKPEDTAVYYCNARGYHYAYKGAYLGDYYWGQGTQVTVSS”, the “polyreactivity (PSR sort gate)” value was “low polyreactivity”.
In the case of “QVQLVESGGGLVQAGGSLRLSCAASGRTFEFYTMGWYRQAPGKERELVAAINWSGSRTYYADSVKGRFTISRDNAKNTVYLQMNSLKPEDTAVYYCNAGEKRGLISIQGYDYWGQGTQVTVSS”, the “polyreactivity (PSR sort gate)” value is reported as “high polyreactivity”.
For “QVQLVESGGGLVQAGGSLRLSCAASGFTFSINAMGWYRQAPGKERELVASITWSGGRTYYADSVKGRFTISRDNAKNTVYLQMNSLKPEDTAVYYCAARSYGTSTYDYWGQGTQETVSS”, the “polyreactivity (PSR sort gate)” value was “high polyreactivity”.
For “QVQLVDSGGGLVQAGGSLRLSCAASGSIIYDYPMGWYRQAPGKEREFVASIDWRGDSTYYADSVKGRFTNSRDNAKNTVYLQMNRLKPEDTAVYYCAADRSYQYYFYEDYGYDYWGQGTQVTVSS”, the “polyreactivity (PSR sort gate)” value was “low polyreactivity”.
With “QVQLLESGGGLVQAGGSLRLSCAASGRIFVVNAMGWYRQAPGKERELVATITRGASTYADSVKGRFTISRDNAKNTVYLQMNSLKPEDTAVYYCAAAKRPQVVRYDWTKLEYWGQGTQVTVSS” the “polyreactivity (PSR sort gate)” value was “high polyreactivity”.
For “QVQLVESGGGLVQAGGSLRLSCAASGYNFYGYAMGWYRLAPGKERELVAAITVRGGSTYYADSVKGRFTISRDNAKNTVYLQMNCQKPEETAVYYCAAAPQFTFGVGYWGQGTQVTVSS”, the “polyreactivity (PSR sort gate)” value was “low polyreactivity”.
With “QVQLVESGGGLVQAGGSLRLSCAASGRILYWYAMGGYRQAPGKERELVAGIDWSGGSTYYADSVKGRFTISRDNAKNTVYLQMNSLKPEDTAVYYCNAVQNRGRGSHRGESTYYYWGQGTQVTVSS” the “polyreactivity (PSR sort gate)” value was “low polyreactivity”.
With “QVQLEESGGGLVQAGGSLRLSCAASGSIFTVNAMGWYRQAPGKERELVAAISSGGSTHYADSVKGRFTISRDNAKNTVYLQMNSLKPEDTAVYFCNAAGAYPDRDNYWGQGTQVTVSS” the “polyreactivity (PSR sort gate)” value was “low polyreactivity”.
In the case of “QVQLVESGGGLVQAGGSLRLSCADSGRTIGLNGMGWYRQAPGKERELVAGISWTGGSTNYADSVKGRFTFSRDNEKNTVYLQINSLKPEDTAVYYCAADFVYYVVNDFGWSYAYEYWGQGTQVTVSS”, the “polyreactivity (PSR sort gate)” value is reported as “low polyreactivity”.
With “QVQLVESGGGLVQAGGSLRLSCAASGRILYSYAMGWYRQAPGKERELVAAISSTGSTYYADSVKGRFTISRDNAKNTVYLQMNSLKPEDTAVYYCAATFYPYQVHHYYYWGKGTQVTVSS” the “polyreactivity (PSR sort gate)” value was “low polyreactivity”.
For “QVQLVESGGGLVQAGGSLRLSCAASGSILFNNAMGWYRQAPGKEWELVAAMGANGGNTYYADSVKGRFTISCDNATNTVYLQMTSLKPEDTAVYYCSADKTLYGGGAWTRWFHYTYGYWGQGTQVTVSS”, the “polyreactivity (PSR sort gate)” value was “high polyreactivity”.
With “QVQLVESGGGLVQAGGSLRLSCAASGFIFRPYAMGWYRQAPGKERELVAAISYGDGITYYADSVKGRFTISRDNAKNTVYLQMNSLKPEDTAVYDCAVDSHPEEYDYWGQGTQVTVSS” the “polyreactivity (PSR sort gate)” value was “low polyreactivity”.
For “QVQLVESGGGLVQAGGSLRLSCAASGRIFGPYAMGWYRQAPGKERELVAAITQRGGSTSYADSVKGRFTISRDNAKKTVYLQMNSLKPEDTAVYYCNVLSYGSIPRRGYYYVWGDYWGQGTQVTVSS”, the “polyreactivity (PSR sort gate)” value was “high polyreactivity”.
For “QVQLVESAGGLVQAGVILRLSCPASGSTIEYYAMGWYRQAPGKERELVATISIDGRTNYADSVKGRFTISRDNAKNTVYLQMNSLNPEDTAVYYCAARPYWRHRYDYCGQGTQVTVSS”, the “polyreactivity (PSR sort gate)” value was “low polyreactivity”.
In the case of “QVQLVESGGGLVQAGGSLRLSCAASGRTFGPYAMGWYRQAPGKDSDLVATISWNGGSTYYADSVKGRFTISRDYAKNSVYLQMNSLKPEDTAVYYCAARHWSQSWKYGYWGQGTQVTVSS”, the “polyreactivity (PSR sort gate)” value is reported as “high polyreactivity”.
With “QVQLVESGGCLVQAGGSLRLSCAASGSIFLYNAMGWYRQAPGKERELVAAIPYSGGRTYYADSVKGRFTISRDNAKNTVSFQMNSLKPEDTAFYYCAVKSFSGHGDYWGQGTQVTVSS” the “polyreactivity (PSR sort gate)” value was “low polyreactivity”.
With “QVQLVESGGGLVQAGGSLRLSCAASGRTFGVYAMGWYRQAPGKERELVAGIRWRGGSTYYADSVKGRFTISRDNAKNTVYLQMNSLKPEDTAVYYCAADVYLVKYDYWGQCTQVTVSS” the “polyreactivity (PSR sort gate)” value was “low polyreactivity”.
With “QVQLVESGGGLVQAGGCLRLSCAASGSTFYVYDMGWYRQAPGKERELVAAMSKRRGTTYYADSVKGRFTISRDNAKNTVYLQMNSLKPEDTAVYYCAAVFRSPSAGYQGGYWGQGSQVTVSS” the “polyreactivity (PSR sort gate)” value was “high polyreactivity”.
For “QVQLVESGGGLVQAGGSLRLSCAASGFTFRTYAMGWYRQAPGKERELVAAISRSGGSTDYADSVKGRFTISRDTAKNTVYLQMNSLKPEHTAVYYCNAVRRAEYDYWGQGTQVTVSS”, the “polyreactivity (PSR sort gate)” value was “high polyreactivity”.
In the case of “QVQLVESGGALVQAGGSLRLSCAASGSIFVPYTMGWYRQAPGKERELVSSISYSGGTTYYADSVKGRFTISRDYAKNTVYLQMNSLKPEDTAVYYCAADWDESYSYRRYSHYDYWGQGTQVTVSS”, the “polyreactivity (PSR sort gate)” value is reported as “low polyreactivity”.
For “QVQLVESGGGLVQAGGSLRLSCAASGRTFYAYAMGWYRQAPGKDRELVAAITLSTGTTYYADSVKGRFTISRDNAKNTVYLQMNSLKPADTAVYYCAVEGYWYAGWYAMDYWGQGTQVTVSS”, the “polyreactivity (PSR sort gate)” value was “low polyreactivity”.
In the case of “EVHLVESGGCLVQPRGSLRLSCAASGYNYIRYRMGSYRQAPGKVREFVAAISGGSSTNYADSVKGRFTISRDNSKNTVYLQMNSLRAEDTAVYYCAAYKIDSDPRVYWGQGTQVTVSS”, the “polyreactivity (PSR sort gate)” value is reported as “low polyreactivity”.
With “QVQLVESGGGLVQAGGSLRLSCAASGRIFYSNAMGWYRQAPGKERELVAAIRDSAGSTRYADSVKGRFTISRDNAKNTVYLQMNSLKPEDTAVYYCNKDYVSIYFEYLDDYWGQGTQVTVSS” the “polyreactivity (PSR sort gate)” value was “low polyreactivity”.
For “QVQLVESGGGLVQAGGSLRLSCAASGFTFKYYTMGWYRQAPGKERELVAAISKSGDITYYADSVKGRFTISRDNAKNTVYLQMNSLKPEDTAVYYCAAVGRVSYNRFDYWGQGTQVTVSS”, the “polyreactivity (PSR sort gate)” value was “high polyreactivity”.
With “QVQLVESGGGLVQAGGSHRLSCAATGIIFARNAMGWYRQAPGKERELVAGINGGRTNYADSVKGRFTISRDNAKNTVYLQMNSLKPEDTAVYYCAARLGRVKYDHWGQGTQVTVSS” the “polyreactivity (PSR sort gate)” value was “high polyreactivity”.
With “QVQLVESGGGLVQAGGSLRLSCAASGSTLPGFTMGWYRHAPGKERELVAAISWSGGSTSYADSVKGRFTISRDNAKNTVYLQMNSLKPEDTAVYYCDVDRFWRPVRSGSTYDYWGQGTQVTVSS” the “polyreactivity (PSR sort gate)” value was “low polyreactivity”.
In the case of “QVQLVDSGGGLVQAGGSLRLSCAASGFIFDTNVMGWYRQAPGKERELVAAISWDVDSTYYADSVKGRFTISRDNAKNTVYLQMNSLKPEDTAVYYCATETFDYYGLAGEYWGQGTQVTVSS”, the “polyreactivity (PSR sort gate)” value is reported as “high polyreactivity”.
In the case of “QVQLVESGGGLVQAGGSLRLSCAASGSTFVGYAMGWYRPAPGKDRELFAAITRGGGSTYYADSVKWRFTISRDNAKNTVYLQINSLKPEDTAVYYCAAYQHPGLRTSYEYWGQGTQVTVSS”, the “polyreactivity (PSR sort gate)” value is reported as “low polyreactivity”.
For “QVQLVESGGGLVQAGGSLRLSCAASGSIFIYYAMGWYRQAPGKERELVAAISWSGDRTYYADSVKGRFTISRDNAKNTVYLQMNSLKPEDTAVYYCAARVVTPSAFPRYYWGQGTQVTVSS”, the “polyreactivity (PSR sort gate)” value was “high polyreactivity”.
In the case of “QVQLVESGGGLVQAGGSLRLSCAASGFIDAYTMGWYRQAPGKERELVAAMTWSGGRTYYADSVKGRFTISRDNAKNTVYLQLYSLKPEDTAVYYCAKDVTPYSPDDDYWGQGTQVTVSS”, the “polyreactivity (PSR sort gate)” value is reported as “low polyreactivity”.
In the case of “QVQLVESAGGLVQAGGSLRLSCAASGRIFSPYAMGWYRQAPGKERELVAAIDWDGGGTYYADSVKGRFTISRDNAKNTVYLQMNSLKPEDTAVYYCAAETDLANGTSPSDYWGQGTQVTVSS”, the “polyreactivity (PSR sort gate)” value is reported as “low polyreactivity”.
For “QVQLVESGGGLVQAGGSLRLSCAASGSIIAGYTMGWYRQAPGKERELVAGIRRGGSTNYADSVKGRFTISRDNAKNTVYLQMNSLKPEDTAVYYCNAQRTRSYVLRTFDYWGQGTQVTVSS”, the “polyreactivity (PSR sort gate)” value was “high polyreactivity”.
For “QDQHVESGGGLVQAGGSLRLSCAASGFTFDFYAMGWYRQAPGKERELVAAISKNDGTTYYADSVKGRFTISRDNAKNTVYLQMNSLKPEDTGVYYCAAESGYPVYTYVSSGDYWGQGTQVTVSS”, the “polyreactivity (PSR sort gate)” value was “low polyreactivity”.
In the case of “QVQLVESGGGLVQAGGSLRLSCAASGITFSTYAMGWYRQAPGKERELVAAINWSGGSTRYADSVKGRFTISRDNAKNTVYLQMNSLKPADTAVYYCAAEVQGQVGEFDYWGQGTQVTVSS”, the “polyreactivity (PSR sort gate)” value is reported as “low polyreactivity”.
For “QVQLVESGGGLVQAGGSLRLSCAASGRIFSNNAMGWYRQAPGKERELVAAISSSGSTYYADSVKGRFTISRDNAKNTVYLQMNSLKPEDTAVYYCAVVYGYPYLRGYVYGFNYWGQGTQVTVSS”, the “polyreactivity (PSR sort gate)” value was “low polyreactivity”.
In the case of “QVQLVESGGGLVQPGGSLRLTCAASGGIFVTYTMGWYRQAPGKDRELVAGINSRSGSTYADSVKGGFTISRDNAKNTVYLQRTSLKLEDTAVYYCAADRIDLGRASRYGYWGQGTQVTVSS”, the “polyreactivity (PSR sort gate)” value is reported as “low polyreactivity”.
For “QVQLVESGGGLVQPGGSLRLSCAASGRTSEIYTMGWYRPAPGKERELVASINTNSADSVKGRFTISRDNAKNTVYLQMNSLKPEDTAVYYCNADDTIEFNYWGQGTQVTVSS”, the “polyreactivity (PSR sort gate)” value was “low polyreactivity”.
With “QVQLVESGGGLVQAGGSLRLSSAASGIICAIYAMGWYRQAPGKERELVAAITWRGGSTYYADSVKGRFTISRDNAKNSVYFQKNRLKPEDTAVYYCAAVTKSLYGYDYWGQGTQVNVSS” the “polyreactivity (PSR sort gate)” value was “low polyreactivity”.
With “QVQLVESGGGLVQAGGSLRLSCAASGITFLTYAMGWYRQSPGKDRELVASITYSGGTTYYADSVKGRFTISRDNAKNTVYLQMNSLQPEDTAVYYCNTDWRTSVGYDYWGQGTQVTVSS” the “polyreactivity (PSR sort gate)” value was “low polyreactivity”.
For “QVQLVESGGGLVQAGGSLRLSCAASGRIFSRNAMGWYRQAPGKERELVAGISARGGRTYYADSVKGRFTISRDNAKNTVYLQMNSLKPEDTAVYYCNARTGYQDGTYGNDYWGQGTQVTVSS”, the “polyreactivity (PSR sort gate)” value was “high polyreactivity”.
In the case of “QVQLVESGGGLVQAGGSLRLSCAASGRTLGGYAMGWYIQATGKERELVAAITRRGGSTYYADSVKGRFTISRDNAKNTVYLQMNSLKPEDTAVYYCAARWYARSLTRFNYWGQGTQVTVSS”, the “polyreactivity (PSR sort gate)” value is reported as “high polyreactivity”.
With “QVQLVESGGGLVQAGGSLRLSCAASGSIFSKYAMGWYRQAPGKERELVAAITFRSGSTYYADSVKGRFTISRDNAKNTVYLQMNSLKPEDTAVYYCAADEYYQVSAYDYWGQGTQVTVSS” the “polyreactivity (PSR sort gate)” value was “low polyreactivity”.
